Data: PMC12834908

What was measured:
[1] = biological target: S500D-eEF-2K, phosphorylated at T348 (S500D-eEF-2K^p) (UniProt O00418)
[2] = biological target: eukaryotic elongation factor-2 kinase, wild type, phosphorylated at T348 (eEF-2K^p) (UniProt O00418)

Ca^2+/CaM-dependent kinase activity kobs (2 μM CaM, 450 μM PepS peptide substrate) [1]: 33 s⁻¹ | Ca^2+/CaM-dependent kinase activity kobs (2 μM CaM, 450 μM PepS peptide substrate) [2]: 40 s⁻¹
Substance: calmodulin (CaM) (from UniProt P0DP23 1-149) (natural protein)
